From patent publication EP1876240B1

How the values were obtained:
[1] = target: human GPVI extracellular region-human Fc fusion protein (hGPVI-hFc) (human); assay: ELISA on immobilized antigen; control
[2] = target: rat GPVI-human Fc (rGPVI-hFc) (rat; mouse); assay: ELISA on immobilized antigen; control

Chain of human GPVI extracellular region-human Fc fusion protein (hGPVI-hFc) (human) (chain, as listed by the source limits assumed, form in doubt): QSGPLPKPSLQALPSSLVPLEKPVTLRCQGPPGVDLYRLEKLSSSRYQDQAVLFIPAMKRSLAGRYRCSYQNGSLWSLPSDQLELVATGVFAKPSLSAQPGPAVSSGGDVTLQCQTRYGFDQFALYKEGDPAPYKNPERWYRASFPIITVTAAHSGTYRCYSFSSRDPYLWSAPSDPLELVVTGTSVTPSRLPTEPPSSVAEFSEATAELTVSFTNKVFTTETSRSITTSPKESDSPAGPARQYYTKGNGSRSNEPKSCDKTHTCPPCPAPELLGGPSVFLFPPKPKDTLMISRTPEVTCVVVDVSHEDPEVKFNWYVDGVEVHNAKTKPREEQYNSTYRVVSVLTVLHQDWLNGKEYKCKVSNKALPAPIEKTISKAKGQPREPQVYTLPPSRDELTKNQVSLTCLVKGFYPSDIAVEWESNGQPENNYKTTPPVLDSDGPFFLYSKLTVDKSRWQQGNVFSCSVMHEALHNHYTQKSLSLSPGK

For Normal Mouse IgG (antibody), the absorbance (ELISA) [1] was 0.026 and the absorbance (ELISA) [2] was 0.123.
